Laboratory results as given in publication PMC10178127, “Immunomodulatory Effects of the Pea Defensin Psd1 in the Caco-2/Immune Cells Co-Culture upon Candida albicans Infection” (International Journal of Molecular Sciences, 2023).

System: Caco-2 polarized monolayer
Assay type: in vitro ADME, human
Experimental: For growing cells, mimicking epithelial barriers in vitro, Caco-2 cells were seeded onto 24-well polycarbonate Millicell cell culture inserts (0.4 μm, 0.6 cm^2 surface area) (Millipore, Burlington, MA, USA), precoated with 0.2% bovine gelatin (Sigma-Aldrich), at a density of 2.5 × 10^5 cells/cm^2. The cells were grown for 21 days in a complete DMEM/F12 (1:1) medium with re-feeding every 2–3 days with a fresh complete medium. The integrity of the Caco-2 cell monolayer was checked by measuring the transepithelial electrical resistance (TEER) using a Millicell-ERS Voltohmmeter (Millipore). Only cell monolayers with TEER > 400 Ωcm^2 (after subtracting TEER in blank inserts without Caco-2 cells) were used in transport across epithelial monolayer and cytokine production experiments.
The recombinant Psd1 was labeled with fluorescein isothiocyanate isomer I (FITC) (Sigma-Aldrich). For this, 0.5 mg of Psd1 was reconstituted in 20 µL of DMSO, then added to 100 µL of the buffer for coupling (0.1 M sodium carbonate, 0.1 M sodium bicarbonate, pH 10.8) and 3.7 mg of FITC in 100 µL of DMSO. The coupling reaction was conducted for 2 h at room temperature in the dark. In order to purify FITC-Psd1, the reaction mixture was loaded onto the PD10 gel-filtration column (GE Healthcare, Chicago, IL, USA) previously equilibrated with transport buffer (Hank’s balanced salt solution, containing 1 mM MgCl2, 1 mM CaCl2, and 10 mM D(+)glucose, pH 7.4).
Transport of FITC-Psd1 across the Caco-2 epithelial barrier in vitro was performed in the transport buffer. Bidirectional “apical-to-basolateral” (A→B) and “basolateral-to-apical” (B→A) transport of FITC-Psd1 in the transport buffer across epithelial barrier was investigated. The “apical-to-basolateral” assay was initiated by adding 0.4 mL of 2 µM FITC-Psd1 to the apical (luminal) side of the monolayer and 0.7 mL of the transport buffer (pH 7.4) to the basolateral side of the monolayer. The “basolateral-to-apical” assay was performed in a similar manner, except that 0.4 mL of the transport buffer (pH 7.4) was added to the apical side and 0.7 mL of 2 µM FITC-Psd1 to the basolateral (serosal) side. All solutions were pre-warmed to 37 °C before taking into the transport experiment. Transport in vitro across Caco-2 barriers was conducted for 90 min in 4 independent inserts for each studied transport variant.
An apparent permeability coefficient (Papp) was calculated for each insert according to the following equation:Papp = (V/(A × Ci)) × ΔC/Δt,(1) where V is the volume of the acceptor chamber, A is the area of the membrane insert, Ci is the initial concentration of Psd1, and ΔC/Δt is the solute flux across the barrier. Uptake ratio:UR = Papp(A→B)/Papp(B→A),(2) and efflux ratio:ER = Papp(B→A)/Papp(A→B),(3) for Psd1 were calculated from averaged apparent permeability coefficients measured in 4 independent inserts. Monolayer integrity was checked by measuring TEER before and after the end of the experiment.

Substance: Psd1: pea defensin from Pisum sativum (UNIPROT P81929), recombinant peptide overexpressed in Escherichia coli (KTCEHLADTYRGVCFTNASCDDHCKNKAHLISGTCHNWKCFCTQNC; UniProt P81929 1-46, looked up)
- efflux ratio (ER) (Caco-2): 2.29
- uptake ratio (UR) (Caco-2): 0.44
- Apparent permeability A→B coefficients (Papp), range of four inserts (Caco-2, pH 7.4): 2.63–3.71 × 10^−6 cm/s
- Papp A→B (Caco-2, pH 7.4): 3.04 ± 0.24 × 10^−6 cm/s
- Papp B→A (Caco-2, pH 7.4): 6.96 ± 0.22 × 10^−6 cm/s
